Experimental data reported in patent US10618964B2, “Nanobody against IL-6R” (Ablynx N.V., dated 2020).

What was measured:
[1] = target: soluble IL-6R in cynomolgous plasma (cynomolgus monkey, UniProt A0A2K5WN54); assay: ELISA 2, periplasmic extract; competitor IL-6; cyno plasma
Description: (§1) In this ELISA, plasma was used as a source of native soluble IL-6R. By this assay, we aimed to confirm the alphascreen results and to get a view on the cross-reactivity of the clones towards cynomolgous IL-6R. Human plasma (ELISA 1 and ELISA 3) or cynomolgous plasma (ELISA 2) were pre-incubated with a dilution of the periplasmic extract of the clones together with human IL-6 (50 ng/mL). Subsequently, plasma soluble IL-6R was captured on a B-N12 coated plate and bound IL-6 was detected using anti-IL-6 antibody BAF206 and streptavidin-HRP (ELISA 1 and ELISA 2). The ELISA signal dropped when the Nanobody clone could compete with IL-6 for binding to soluble IL-6R. ELISA 3 was a parallel ELISA in which the detection antibody was replaced by anti-IL-6R antibody BAF227 to exclude false positive competitors, which actually compete with B-N12 (e.g. family 2). Depicted in Table C-5 is the ratio of the OD450 value of the test sample versus the blank OD450 (mock sample). Clones were ordered based on ELISA 1 data.

[2] = target: T1, native soluble IL-6R in human plasma (human, UniProt P08887); assay: ELISA 1, periplasmic extract; competitor IL-6; human plasma
Description: as §1

[3] = target: T1, native soluble IL-6R in human plasma; assay: ELISA 3, periplasmic extract; competitor BN-12; human plasma
Description: as §1

| Binder | OD450 ratio sample/blank [1] | OD450 ratio sample/blank [2] | OD450 ratio sample/blank [3] |
| --- | --- | --- | --- |
| IL6RPMP120C10 (VHH) VHH: EVQLVESGGGLVQAGGSLSLSCATSGRTISDDTMAWFRQAPGKEREFVAIITFNGARTHYSDSVRDRFTISRDNAKNTVYLQMNSLKSEDTAVYYCAASTKYYSSTYNYIHPAFYDIWGQGTQVTVSS | 0.0351 | 0.139 | 1.01 |
| IL6RPMP100D11 (VHH) VHH: EVQLVESGGGLVQAGDSLRLSCLASGRSFKDDAMGWFRQAPGKEREFVSGIDWRGNIVDAESVKGRFTISRENAKNTLYLQMNHLKPEDTAVYYCAASSVFSDLRYRKNPKYWGQGTQVTVSS | 0.962 | 1.9 | 0.969 |
| IL6RPMP101F6 (VHH) VHH: EVQLVESGGGLVQAGGSLRLSCAASGSIFSIKAMGWYRQAPGKQRELVARITSGGSTYYADSVKGRFTISRDNAKNTVYLQMNSLKPEDTAVFYCNAIVTDSDYDLGNDYWGQGTQVTVSS | 0.0273 | 0.0703 | 0.947 |
| IL6RPMP103A2 (VHH) VHH: EVQLVESGGGLVQPGGSLRLSCAASGSIFSINTMGWYRQVPGKQRELVATVRSGSITNYADSVQDQFTITRDIDENTVYLQMNSLKPEDTAVYYCLTRASVPGRGYQDYWGQGTQVTVSS | 1.09 | 2.04 | 0.993 |
| IL6RPMP101G11 (VHH) VHH: EVQLVESGGGLVQPGGSLRLSCAASASGFTLDYYAIGWFRQAPGKEREGVSCISSTDGSTYYADSVKGRFTISRDNAKNTVYLQMNSLNPEDTGVYTCAAVLTTAQAMGVPTRSYEYDYWGQGTQVTVSS | 0.0538 | 0.227 | 0.468 |
| IL6RPMP106D6 (VHH) VHH: EVQLVESGGGLVQAGGSLRLSCAASGFTFDDYAIGWFRQAPGKEREGVSCMISSDGSTYYADSVKGRFTISSDNAKNTVYLQMDSLKPEDTAVYYCAADLSLYGCYVGDRDLYDYDYWGQGTQVTVSS | 1.13 | 1.27 | 1 |
| IL6RPMP107C3 (VHH) VHH: EVQLVESGGGLVQAGGSLNLSCNASGDIGSINAMGWHRQAPGQQREWVAVITDTDSTIYPDSVKGRFAISRDGAKNTVHLRMSSLKPEDTAVYYCNAYQAGWGDYWGQGTQVTVSS | 0.904 | 0.438 | 1.06 |
| IL6RPMP102G3 (VHH) VHH: EVQLVESGGGLVQAGGSLRLSCAASGSIDRINAMGWYRQAPGKQRDFLAVITDGDKTLYADSVKGRFTISNDNAKNTVYLQMNSLKPEDTAVYYCNAYQAGWGDYWGQGTQVTVSS | 1.32 | 1.76 | 0.968 |
| IL6RPMP104E7 (VHH) VHH: EVQLVESGGGLVQAGGSLRLSCAAGGSIFSINAMGWYRQAPGKQRELVASITSGGSTTYADSVKGRFTISRDNAKDTVYLQMNSLKPEDTAVYYCNAHIRFPFPNDYWGQGTQVTVSS | 0.993 | 2.04 | 1.01 |
| IL6RPMP101G1 (VHH) VHH: EVQLVESGGGLVQPGGSLRLSCAASGGTLDYYAIGWFRQAPGKEREGVSCISSSDGSTYYASSVKGRFTVSRDKAKNTVYLQMNSLKPEDTAVYYCAFVFTTAQAMGVPNNPYEYDFWGQGTQVTVSS | 0.0937 | 0.148 | 0.639 |
| IL6RPMP108C10 (VHH) VHH: EVQLVESGGGLVQPGGSLRLSCTASGRTFSDYDMGWFRQAPGKERECVAVIDTNGDNTLTVGSVKGRFAISRDNAKNTVYLQMNSLLPEDTAVYTCAAGAWSSLRSTAANYWGQGTQVTVSS | 0.795 | 1.07 | 1.04 |
| IL6RPMP104B9 (VHH) VHH: EVQLVESGGGLVQAGGSLRLSCTASGRTFSDYDMGWFRQAPGKERECVAIIDTNGDNTLIVGSVKGRFAISSDNAKNTVYLQMNSLLPEDTAVYTCAAGVWSSLRHTAANYWGQGTQVTVSS | 0.766 | 2.06 | 1 |
| IL6RPMP101B2 (VHH) VHH: EVQLVESGGGLVQAGGSLRLSCTASGRTFTDYDMGWFRQAPGKEREVVAIIDTNGDNTLTVGSVKGRFAISSDNAKNTVYLQMNSLLPEDTAVYTCAAGAWSALRRSVANYWGQGTQVTVSS | 0.727 | 1.09 | 0.909 |
| IL6RPMP101G3 (VHH) VHH: EVQLVESGGGLVQAGGSLRLSCTASGRTFSDYDMGWFRQAPGKERECVAIIDTNGDNTLIVGSVKGRFAISSDNAKNTVYLQMNSLLPEDTAVYTCAAGVWSSLRHTAANYWGQGTQVTVSS | 0.773 | 1.08 | 0.892 |
| IL6RPMP101D6 (VHH) VHH: EVQLVESGGGLVQAGGSLRLSCTASGRTFSDYDMGWFRQAPGKERECVAIIDTNGDNTLIVGSVKGRFAISSDNAKNTVYLQMNSLLPEDTAVYTCAAGVWSSLRHTAANYWGQGTQVTVSS | 0.731 | 1.09 | 0.948 |
| IL6RPMP101A3 (VHH) VHH: EVQLVESGGGLVQAGGPLRLSCTASGRTFTDYDMGWFRQAPGKEREVVAIIDTNGDNTLTVGSVKGRFAISSDNAKNTVYLQMNSLLPEDTAVYTCAAGAWSALRRSVANYWGQGTQVTVSS | 0.687 | 1.08 | 0.946 |
| IL6RPMP104A8 (VHH) VHH: EVQLVESGGGLVQAGGSLRLSCTASGRTFSDYDMGWFRQAPGKEREFVAVIDTNGGHTLTVGSVKGRFAISSDNAKNTVYLQMNSLVPEDTAVYTCAAGAWSSLRKTAASYWGQGTQVTVSS | 0.725 | 2.04 | 0.973 |
| IL6RPMP101B3 (VHH) VHH: EVQLVESGGGLVQAGGSLRLSCAASGSIFRINAMGWYRQAPGKQRELVAAAISGGSTNYADFVKGRFTISRDNAKNTVYLQMNSLKPEDTAVYYCNALVVSHNYSDYVPFPDDYWGQGTQVTVSS | 1.05 | 0.402 | 0.972 |
| IL6RPMP105D3 (VHH) VHH: EVQLEESGGGLVQAGGSLRLSCAASGSIFRINAMGWYRQAPGKQRELVAAAISGGSTNYADFVKGRFTISRDNAKNTVYLQMNSLKPEDTAVYYCNALVVSHNYSDYVPFPDDYWGQGTQVTVSS | 0.995 | 0.457 | 1.01 |
| IL6RPMP103B2 (VHH) VHH: EVQLVESGGGLVQPGGSLRLSCAASGSTFSINMMAWYCQAPGKQRELVASISSGGGINYADSVKGRFTISRDYAENSVDLQMNSLKPEDTAVYYCNARGTYLNGDHYSTNYNSWGQGTQVTVSS | 0.81 | 1.76 | 1.02 |
| IL6RPMP103A5 (VHH) VHH: EVQLVESGGGLVQAGDSLRLSCVASGLPFSTLHMGWFRQAPGKEHESVSAISSDGGSEYYAGSVKGRFTISRDNAKNTVYLQMNSLKPEDTAVYYCAADPRRIGANIKYSDYWGQGTQVTVSS | 0.859 | 2.12 | 0.943 |
| IL6RPMP103D7 (VHH) VHH: EVQLVESGGGLVEAGGSLRLSCAAAGRTLSSYSMAWFRQAPGKEREFVAIIRGNPSRTYHSDSVKGRFTASRDNAKNTVYLQMNRLEPEDTAVYYCAADPPPFASDYSAPQSYDYWGQGTQVTVSS | 0.0821 | 0.355 | 0.98 |
| IL6RPMP104E4 (VHH) VHH: EVQLVESGGGTVQAGGSLKLSCAASGRTFTNYAMGWFRQAPGKEREFVAAIAYATHFADSVKGRFTISRGNAKNTVYLQMNSLKPEDTAVYYCAADLSLSKMVSKITSDMDYWGKGTLVTVSS | 0.838 | 1.34 | 1.03 |
| IL6RPMP120F4 (VHH) VHH: EVQLVESGGGLVQTGGSLRLSCAVSGRTDSTASVGWFRQAPGKQREWVVGISSGGSTHYADSVKGRFISSQDDAKNTVYLQMNSLKPEDTAIYYCAIAHGSSTYNYWGQGTQVTVSS | 0.0331 | 0.498 | 0.923 |
| IL6RPMP107B4 (VHH) VHH: EVQLVESGGGLVQAGGSLRLSCVASGLRLNMHRMGWFRQAPGKEREFVARIFTDDGDSYYADSVQGRFTISGDNAKNTVYLQMNSLKPEDTGVYFCAAGYMSGAESPIGYDNWGQGTQVTVSS | 0.918 | 1.2 | 1.04 |
